B1: leptin: polypeptide hormone, product of the ob gene; human leptin (Sigma) infused ICV (protein)
chain: VPIQKVQDDTKTLIKTIVTRINDISHTQSVSAKQRVTGLDFIPGLHPILSLSKMDQTLAVYQQVLTSLPSQNVLQIANDLENLRDLLHLLAFSKSCSLPQTSGLQKPESLDGVLEASLYSTEVVALSRLQGSLQDILQQLDVSPEC

Key:
Format in all cases: in vivo, mouse
wt mice = assay: Long-term isoproterenol treatment of wt mice
Description: Wildtype (C57BL/6J) and mutant (C57BL/6J A^y/a, C57BL/6J ob/ob) mice were obtained from the Jackson laboratory and adrenal medullectomized mice from Harlan Tecklad laboratory. Dbh−/− mice were rescued as previously described (Thomas et al., 1998, Neurochem 70:2468-2476). Isoproterenol (Sigma) was injected intraperitoneally (ip) once daily for 6 weeks at 30 mg/kg (wt) or 3 mg/kg (ob/ob). Propranolol (Sigma) was added to the drinking water at a concentration of 0.5 g/l. For ICV infusion, a 28-gauge cannula (Brain infusion kit II, Alza) was implanted into the third ventricle as previously described infusing human leptin (Sigma) at 8 ng/hr or MT-II at 125 ng/hr (Phoenix Pharmaceuticals) for 28 days (see, e.g., Ducy et al., 2000, Cell 100: 197-207). The cannula was connected to an osmotic pump (Alza) placed in the dorsal subcutaneous space of the animal. For parabiosis longitudinal incisions were made in the skin and in the peritoneal cavity along one side on each mouse. Edges of the incisions were connected by suture to induce coelioanastomosis. Cross-circulation was quantified by injecting 1 ml/kg 0.25% Evans blue into the tail vein of one mouse of the parabiosed pair. After 30 min. blood was collected from both mice by retroorbital bleeding and the blood exchange rate was calculated according to standard techniques (see, e.g., Harris & Martin, 1984, Am J Physiol 247:R380-386). […] Two weeks after parabiosis a pump delivering leptin ICV in one animal of each pair was implanted. For GTG lesioning, 4-week-old C57BL/6J mice were given a single ip injection of either PBS or GTG (0.5 mg/g). For MSG lesioning, 2 day-old C57BL/6J pups were injected daily subcutaneously with either PBS or MSG (2 mg/g) for 10 days.
Histological analyses were performed on undecalcified sections stained by von Kossa and counterstained by von Gieson (see, e.g., Ducy et al., 2000, Cell 100:197-207). Static and dynamic histomorphometric analyses were performed according to standard protocols (see, e.g., Parfitt et al., 1987, J Bone Miner Res 6:595-610) using the Osteomeasure Analysis System (Osteometrics, Atlanta). Six to 12 animals were analyzed for each group. Statistical significance was assessed by Student's t test.
To address this point one month-old ob/ob mice were treated for 6 weeks with the β-adrenergic agonist isoproterenol or vehicle. […] To determine the role of the SNS in animals that have none of the metabolic and neurological abnormalities caused by leptin deficiency, this experiment was repeated in wt mice.

MSG-lesioned ob/ob mice = assay: Leptin ICV infusion in MSG-lesioned ob/ob mice
Description: (§1) Wildtype (C57BL/6J) and mutant (C57BL/6J A^y/a, C57BL/6J ob/ob) mice were obtained from the Jackson laboratory and adrenal medullectomized mice from Harlan Tecklad laboratory. Dbh−/− mice were rescued as previously described (Thomas et al., 1998, Neurochem 70:2468-2476). Isoproterenol (Sigma) was injected intraperitoneally (ip) once daily for 6 weeks at 30 mg/kg (wt) or 3 mg/kg (ob/ob). Propranolol (Sigma) was added to the drinking water at a concentration of 0.5 g/l. For ICV infusion, a 28-gauge cannula (Brain infusion kit II, Alza) was implanted into the third ventricle as previously described infusing human leptin (Sigma) at 8 ng/hr or MT-II at 125 ng/hr (Phoenix Pharmaceuticals) for 28 days (see, e.g., Ducy et al., 2000, Cell 100: 197-207). The cannula was connected to an osmotic pump (Alza) placed in the dorsal subcutaneous space of the animal. For parabiosis longitudinal incisions were made in the skin and in the peritoneal cavity along one side on each mouse. Edges of the incisions were connected by suture to induce coelioanastomosis. Cross-circulation was quantified by injecting 1 ml/kg 0.25% Evans blue into the tail vein of one mouse of the parabiosed pair. After 30 min. blood was collected from both mice by retroorbital bleeding and the blood exchange rate was calculated according to standard techniques (see, e.g., Harris & Martin, 1984, Am J Physiol 247:R380-386). […]

ob/ob mice = assay: Intracerebroventricular infusion of leptin in ob/ob mice
Description: Lastly, the issue of whether leptin binding to its hypothalamic receptor could correct the high bone mass phenotype of the ob/ob mice as it can rescue their obesity phenotype was addressed. To that end pumps delivering either PBS or leptin (8 ng/hr) in the third ventricle of ob/ob mice were inserted as follows. Animals were anesthetized with avertin and placed on a stereotaxic instrument (Stoelting). The Calabria was exposed and a 0.7 mm hole was drilled upon bregma. A 28-gauge cannula (Brain infusion kit U, Alza) was implanted into the third ventricle according to the following coordinates: midline, −0.3 AP, 3 mm ventral (0 point bregma). The cannula was secured to the skull with cyanoacrylate, and attached with Tygon tubing to an osmotic pump (Alza) placed in the dorsal subcutaneous space of the animal. The rate of delivery was 0.25 μl/hour (8 ng/hr of leptin (Sigma)) or PBS for 28 days. The dosage has been previously shown to have no effect when administered systemically (Halaas et al., 1997, Proc Nati Acad Sci USA 94:8878-8883). To be as close as possible to the biological situation of the ob/ob mice, the animals in which pumps were inserted were ovariectomized to avoid any artificial increase in bone mass due to the correction of their hypogonadism. The pumps were left in place for 28 days and double-labeling with calcein was performed to measure the bone formation parameters.

Dbh-deficient mice = assay: Leptin ICV infusion in Dbh-deficient mice
Description: as §1

[1] = ob/ob mice, ICV 8 ng/hr, 28 days

Row | Molecule | expression of uncoupling protein 1 (Ucp1) in brown adipose tissue (wt mice) | bone mass (wt mice; 30 mg/kg ip once daily, 6 weeks) | body weight (wt mice; 30 mg/kg, 6 weeks) | bone formation rate (wt mice; 30 mg/kg, 6 weeks) | osteoblast number (wt mice; 30 mg/kg, 6 weeks) | Bone Volume (MSG-lesioned ob/ob mice) | body weight (MSG-lesioned ob/ob mice) | leptin in the serum (radioimmunoassay) (ob/ob mice; ob/ob mice after ICV infusion) | Bone Volume (ob/ob mice; [1]) | bone formation rates (ob/ob mice; [1]) | trabeculae thickness (ob/ob mice; [1]) | bone appearance (classical histology) (ob/ob mice; ovariectomized ob/ob mice, third ventricle, 8 ng/hr, 28 days, vs PBS) | bone mass (Dbh-deficient mice) | gonadal fat pad (Dbh-deficient mice)
1 | CC(C)NCC(O)c1ccc(O)c(O)c1 (centres unmarked) [isoproterenol] | increased | significantly decreased | without affecting | significantly decreased | significantly decreased |  |  |  |  |  |  |  |  | 
2 | B1 |  |  |  |  |  | decreases | does not affect | No leptin in the serum of these animals was detected | significantly decreased | significantly decreased | significantly decreased | regained a normal appearance | failed to decrease | near disappearance
